The text below walks through data of publication PMC6112833, “Combinatorial engineering of N-TIMP2 variants that selectively inhibit MMP9 and MMP14 function in the cell” (Oncotarget, 2018).

For assay [1], the target named is T1, MMP10 catalytic domain (MMP10CAT) (UniProt P09238 99-263).
T1 construct: catalytic domain of MMP10 (stromelysin); source: purified as previously described [66, 91]
Description: enzyme inhibition assay (fluorogenic substrate, fit to Morrison's tight binding equation); 0.0075 nM MMP14CAT or MMP9CAT (MMP1CAT, MMP10CAT: concentration not stated) incubated with 0.4-25 nM or 1.5-500 nM inhibitor for 1 h at 37 C in TCNB buffer (50 mM Tris-HCl pH 7.5, 100 mM NaCl, 5 mM CaCl2, 0.05% Brij), then 15 uM Mca-Pro-Leu-Gly-Leu-Dpa-Ala-Arg-NH2; Ki from the apparent Ki; mean of three experiments. Conditions: both partners purified.

Assay [2] concerns the target T2, MMP1 catalytic domain (MMP1CAT) (UniProt P03956 100-269).
T2 construct: catalytic domain of MMP1 (collagenase); source: purified as previously described [66, 91]
T2 sequence (looked up): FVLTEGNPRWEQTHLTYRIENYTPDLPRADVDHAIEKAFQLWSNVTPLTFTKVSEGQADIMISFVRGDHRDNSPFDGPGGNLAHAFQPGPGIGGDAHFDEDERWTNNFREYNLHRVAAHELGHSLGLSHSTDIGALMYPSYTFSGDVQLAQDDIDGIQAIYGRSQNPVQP
The assay is described as above. Particulars: both partners purified.

The target in assay [3] is T3, MMP9 catalytic domain lacking the fibronectin-like domain (MMP9CAT, residues 107-215 and 391-443) (human, UniProt P14780 107-215; P14780 391-443, conjugated to DyLight-650 for the yeast display sorting and flow cytometry).
T3 construct: human MMP9 catalytic domain, first stretch, residues 107-215 (before the fibronectin-like domain, which is left out); human MMP9 catalytic domain, second stretch, residues 391-443 (after the fibronectin-like domain); In the functional rows the full-length MMP9 secreted by MCF-7-MMP9 cells is meant; source: gift from Irit Sagi (Weizmann Institute of Science), purified
T3 chain (looked up): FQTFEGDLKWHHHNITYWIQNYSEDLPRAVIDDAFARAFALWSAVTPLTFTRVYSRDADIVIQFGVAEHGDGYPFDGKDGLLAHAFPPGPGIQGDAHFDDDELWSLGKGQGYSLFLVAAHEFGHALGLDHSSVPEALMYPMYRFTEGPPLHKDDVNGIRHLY
The assay is described as above. Conditions: both partners purified.

In assay [4] the target is T4, MMP14 catalytic domain (MMP14CAT, residues 112-292) (human, UniProt P50281 112-292, conjugated to DyLight-488 for the yeast display sorting and flow cytometry).
T4 construct: human MMP14 catalytic domain, residues 112-292; In the functional rows the MMP14 of the cells (endogenous in U87MG, or pCMV MMP14 in MCF-7) is meant; source: E. coli BL-21 (DE3), pET3a, purified as previously described
Described as above. Conditions: both partners purified.

Assay [5] concerns the target T3, MMP9 catalytic domain lacking the …. The assay is described as follows: cell-based or functional assay.
Assay [6] concerns the target T4, MMP14 catalytic domain (MMP14CAT, …). Description: cell-based or functional assay.

T1 sequence (P09238 99-263): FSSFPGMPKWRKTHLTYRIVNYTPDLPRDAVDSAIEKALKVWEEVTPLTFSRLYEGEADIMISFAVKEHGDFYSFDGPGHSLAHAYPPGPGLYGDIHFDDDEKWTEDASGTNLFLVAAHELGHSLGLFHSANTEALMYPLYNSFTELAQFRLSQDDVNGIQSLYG

B1: N-TIMP2WT, wild type N-terminal domain of the tissue inhibitor of metalloproteinase-2, soluble form (domain or fragment, UniProt P16035 27-153, looked up)
chain: CSCSPVHPQQAFCNADVVIRAKAVSEKEVDSGNDIYGNPIKRIQYEIKQIKMFKGPEKDIEFIYTAPSSAVCGVSLDVGGKKEYLIAGKAEGDGKMHITLCDFIVPWDTLSTTQKKSLNHRYQMGCE
notes: limits worked out from the printed primers (forward primer encodes CSCSP, reverse primer ends at YQMGCE); also called wild-type N-TIMP-2; source: P. pastoris X33 (pPICZalphaA), secreted, purified (Ni-NTA, Superdex 75 SEC)
In the case of B1, the Ki was found to be 3.5 ± 0.8 nM in assay [1], 0.7 ± 0.1 nM in assay [2], 0.5 ± 0.04 nM in assay [3] and 5 ± 1 nM in assay [4]. The “inhibition of the gelatin-degrading activity of MMP9 from MCF-7-MMP9 supernatant (gelatin zymography, gel incubated with 100 nM inhibitor)” value in assay [5] is ~86%. Moreover, in assay [6], the “inhibition of MMP2 activation by MMP14 in U87MG cells (gelatin zymography of media, 100 nM inhibitor, 48 h)” value (from here on “inhibition of MMP2 activation by MMP14”) stood at 45%. Further, the “inhibition of trans-well migration of MCF-7-MMP14 cells (100 nM inhibitor, 24 h)” value (“inhibition … (100 nM inhibitor, 24 h)” for short) in assay [6] amounted to 30%.

B2: N-TIMP2_(9_1), soluble form (designed binder)
chain: CSCPPVHPQQAFCNADVVIRAKAVSEKEVDSGNDPYGWPIKRIQYEIKQIKMFKGPEKDIEFIYTAPNSAICGVSLDVGGKKEYLIAGKAEGDGKMMIKLCDFIVPWDTLSTTQKKSLNHRYQMGCE
notes: limits worked out from the printed primers (forward primer encodes CSCP, reverse primer ends at YQMGCE); source: P. pastoris X33 (pPICZalphaA), secreted, purified (Ni-NTA, Superdex 75 SEC)
Turning to B2, the values for the Ki in assay [3] and in assay [4] were 0.78 ± 0.02 nM and 240 ± 31 nM, respectively. Further, the “inhibition of the gelatin-degrading activity of MMP9 from MCF-7-MMP9 supernatant (gelatin zymography, gel incubated with 100 nM inhibitor)” value in assay [5] was ~82%.

B3: N-TIMP2_(9_13), soluble form (designed binder)
chain: CSCPPVHPQQAFCNADVVIRAKAVSEKEVDSGNDPYGWPIKRIQYEIKQIKMFKGPEKDIEFIYTAPNSAVCGVSLDVGGKKEYLIAGKAEGDGKMKIKLCDFIVPWDTLSTTQKKSLNHRYQMGCE
notes: as for B2
As to B3, the Ki in assay [1] is 40 ± 14 nM; in assay [2], 18 ± 8 nM; in assay [3], 1.2 ± 0.007 nM; in assay [4] it was 832 ± 44 nM. Also, the “inhibition of the gelatin-degrading activity of MMP9 from MCF-7-MMP9 supernatant (gelatin zymography, gel incubated with 100 nM inhibitor)” value in assay [5] was ~75%.

B4: N-TIMP2_(14_18), soluble form (designed binder)
chain: CSCKPVHPQQAFCNADVVIRAKAVSEKEVDSGNDLYGFPIKRIQYEIKQIKMFKGPEKDIEFIYTAPFSAVCGVSLDVGGKKEYLIAGKAEGDGKMEITLCDFIVPWDTLSTTQKKSLNHRYQMGCE
notes: limits worked out from the printed primers (forward primer encodes CSCK, reverse primer ends at YQMGCE); also called N-TMP2_(14_18); source: P. pastoris X33 (pPICZalphaA), secreted, purified (Ni-NTA, Superdex 75 SEC)
For the molecule B4, the Ki in assay [3] came out at 1.25 ± 0.2 nM. For the same molecule, the Ki in assay [4] came to 0.024 ± 0.005 nM. Moreover, in assay [6], the “inhibition of MMP2 activation by MMP14” value worked out at 50% and the “inhibition … (100 nM inhibitor, 24 h)” value is ~50%.

B5: N-TIMP2_(14_17), soluble form (designed binder)
chain: CSCDPVHPQQAFCNADVVIRAKAVSEKEVDSGNDLYGSPIKRIQYEIKQIKMFKGPEKDIEFIYTAPDSASCGVSLDVGGKKEYLIAGKAEGDGKMSIFLCDFIVPWDTLSTTQKKSLNHRYQMGCE
notes: limits worked out from the printed primers (forward primer encodes CSCD, reverse primer ends at YQMGCE); source: P. pastoris X33 (pPICZalphaA), secreted, purified (Ni-NTA, Superdex 75 SEC)
With B5, the Ki in assay [1] came out at 3.2 ± 0.4 nM; in assay [2] it was 0.92 ± 0.15 nM; in assay [3], 3.58 ± 0.5 nM; in assay [4], 0.03 ± 0.003 nM. Also, the “inhibition of MMP2 activation by MMP14” value in assay [6] was 45%. Also, the “inhibition … (100 nM inhibitor, 24 h)” value in assay [6] is 38%.
